Experimental data reported in publication PMC3485041, “In Vitro Site Selection of a Consensus Binding Site for the Drosophila melanogaster Tbx20 Homolog Midline”.

T1: Midline T-box domain (MidTbx) (Drosophila melanogaster, UniProt Q8SYY8 171-393)
T1 sequence: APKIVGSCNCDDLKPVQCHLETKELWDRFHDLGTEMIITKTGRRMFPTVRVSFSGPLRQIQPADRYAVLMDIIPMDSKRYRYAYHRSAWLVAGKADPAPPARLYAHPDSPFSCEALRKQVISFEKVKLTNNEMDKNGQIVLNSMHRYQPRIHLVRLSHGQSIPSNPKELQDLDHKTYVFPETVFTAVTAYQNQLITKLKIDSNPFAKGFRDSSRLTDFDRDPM

B1: clone 2 (dsDNA)
DNA 1: GCTGCAGTTGCACTGAATTCGCCTCACCATCACACCAGCGAAGTGACAGTTCGACAGGATCCGCTGAACTGACCTG
DNA 2: CAGGTCAGTTCAGCGGATCCTGTCGAACTGTCACTTCGCTGGTGTGATGGTGAGGCGAATTCAGTGCAACTGCAGC
B2: clone 57 (dsDNA)
DNA 1: CAGGTCAGTTCAGCGGATCCTGTCGACATGGGAGGCTGTTACGGCGCGAACGAGGCGAATTCAGTGCAACTGCAGC
DNA 2: GCTGCAGTTGCACTGAATTCGCCTCGTTCGCGCCGTAACAGCCTCCCATGTCGACAGGATCCGCTGAACTGACCTG
B3: clone 42 (dsDNA)
DNA 1: CAGGTCAGTTCAGCGGATCCTGTCGGGTGTTGATGGTGTTAACGCGCGAGGGAGGCGAATTCAGTGCAACTGCAGC
DNA 2: GCTGCAGTTGCACTGAATTCGCCTCCCTCGCGCGTTAACACCATCAACACCCGACAGGATCCGCTGAACTGACCTG
B4: clone 4 (dsDNA)
DNA 1: GCTGCAGTTGCACTGAATTCGCCTCCGTGCGTACGTGTCAATTCGTCAAGGCCGACAGGATCCGCTGAACTGACCTG
DNA 2: CAGGTCAGTTCAGCGGATCCTGTCGGCCTTGACGAATTGACACGTACGCACGGAGGCGAATTCAGTGCAACTGCAGC
B5: clone 75 (dsDNA)
DNA 1: CAGGTCAGATCAGCGGATCCTGTCGCGACGCCTTGGGGGTGTCACGGCGCGGCAGGTCAGATCAGCGGATCCTGTCG
DNA 2: CGACAGGATCCGCTGATCTGACCTGCCGCGCCGTGACACCCCCAAGGCGTCGCGACAGGATCCGCTGATCTGACCTG
B6: clone 74 (dsDNA)
DNA 1: CAGGTCAGTTCAGCGGATCCTGTCGCCTTAAGGTGCGGGCAGACAGGTGTGGAGGCGAATTCAGTGCAACTGCAGC
DNA 2: GCTGCAGTTGCACTGAATTCGCCTCCACACCTGTCTGCCCGCACCTTAAGGCGACAGGATCCGCTGAACTGACCTG
B7: clone 43 (dsDNA)
DNA 1: CAGGTCAGTTCAGCGGATCCTGTCGGGGGGCTGGTGCGAAAGTGTGTAGTGGCAGGTCAGTTCAGCGGATCCTGTCG
DNA 2: CGACAGGATCCGCTGAACTGACCTGCCACTACACACTTTCGCACCAGCCCCCCGACAGGATCCGCTGAACTGACCTG
B8: clone 67 (dsDNA)
DNA 1: CAGGTCAGTTCAGCGGATCCTGTCGCTACGGAGGTGATTACACGCGAAATCGAGGCGAATTCAGTGCAACTGCAGC
DNA 2: GCTGCAGTTGCACTGAATTCGCCTCGATTTCGCGTGTAATCACCTCCGTAGCGACAGGATCCGCTGAACTGACCTG
B9: clone 50 (dsDNA)
DNA 1: CAGGTCAGTTCAGCGGATCCTGTCGAGGTGTGGCACTGTGAAGTTCGCGAGGAGGCGAATTCAGTGCAACTGCAGC
DNA 2: GCTGCAGTTGCACTGAATTCGCCTCCTCGCGAACTTCACAGTGCCACACCTCGACAGGATCCGCTGAACTGACCTG
B10: clone 72 (dsDNA)
DNA 1: GCTGCAGTTGCACTGAATTCGCCTCAGCGCCCAGTTGGTGTTAAGCCAGTCCGACAGGATCCGCTGAACTGACCTG
DNA 2: CAGGTCAGTTCAGCGGATCCTGTCGGACTGGCTTAACACCAACTGGGCGCTGAGGCGAATTCAGTGCAACTGCAGC
B11: mid.Najand (dsDNA)
DNA 1: CAAGGTGTCAAGGCG
DNA 2: CGCCTTGACACCTTG
B12: mid.Liu (dsDNA)
DNA 1: GGAAGTAGGTCAAG
DNA 2: CTTGACCTACTTCC
B13: Tbx20.MacIndoe (dsDNA)
DNA 1: GGAGGTGTGAGGCGA
DNA 2: TCGCCTCACACCTCC
B14: mid.Najand Region 2 (dsDNA)
DNA 1: CAAGGTGTCAAGGAA
DNA 2: TTCCTTGACACCTTG
B15: mid.Najand Region 1 (dsDNA)
DNA 1: CACCCCCCCAAGGCG
DNA 2: CGCCTTGGGGGGGTG
B16: T-site (Brachyury palindrome) (dsDNA)
DNA 1: AATTTCACACCTAGGTGTGAAATT
DNA 2: AATTTCACACCTAGGTGTGAAATT

These binders were tested against T1, Midline T-box domain (MidTbx) (assay: EMSA; 20 mM HEPES pH 7.9, 100 mM KCl, 0.2 mM EDTA, 0.2 mM EGTA, 20% glycerol, 0.1% NP40, 0.5 mM DTT, 10 mg/ml BSA, 8 ng/ul poly(dI-dC); room temperature 1 h; 15 fmol). Details: protein: recombinant; tags: C-terminal 6xHis (pET-21a); label: 5' biotin (primer F); blunt.
B1: binds.
B2: binds.
B3: binds.
B4: binds.
B5: binds.
B6: binds.
B7: binds.
B8: binds.
B9: binds.
B10: binds.

Same assay, conditions: protein: recombinant; tags: C-terminal 6xHis (pET-21a); label: 5' biotin; blunt
B11: binds.
B12: no binding.
B13: binds.
B14: binds.
B15: no binding.

Same assay, conditions: protein: recombinant; tags: C-terminal 6xHis (pET-21a); label: 5' biotin; blunt; self-complementary, 2 copies
B16: binds.
